Changes are numbered by the printed parent chain. Numbers in names are those of the source.
B1: hIgG1 M252Y/T256S/V308P/N434W, O4 VH with Ab6 light chain (antibody)
heavy: QVQLRQSGPGLVQPSQSLSITCTVSGFSLTSYGVHWFRQSPGKGLEWLGVIWSGGSTDYNAAFISRLSISKDNSKSQVFFKMNSLQANDTAIYYCARNRGRYNYYAMDYWGQGTSVTVSSASTKGPSVFPLAPSSKSTSGGTAALGCLVKDYFPEPVTVSWNSGALTSGVHTFPAVLQSSGLYSLSSVVTVPSSSLGTQTYICNVNHKPSNTKVDKKVEPKSCDKTHTCPPCPAPELLGGPSVFLFPPKPKDTLYISRSPEVTCVVVDVSHEDPEVKFNWYVDGVEVHNAKTKPREEQYNSTYRVVSVLTPLHQDWLNGKEYKCKVSNKALPAPIEKTISKAKGQPREPQVYTLPPSRDELTKNQVSLTCLVKGFYPSDIAVEWESNGQPENNYKTTPPVLDSDGSFFLYSKLTVDKSRWQQGNVFSCSVMHEALHWHYTQKSLSLSPG
light: not shown
notes: hIgG1
B2: hIgG1 P257A/V308P/M428L/N434Y, O4 VH with Ab6 light chain (antibody)
heavy: B1 heavy with Y255M, S259T, P260A, M431L, W437Y
light: not shown
notes: hIgG1
B3: hIgG1 M252Y/T256M/V308P/N434W, O4 VH with Ab6 light chain (antibody)
heavy: B1 heavy with S259M
light: not shown
notes: hIgG1
B4: hIgG1 M252Y/T256D/V308P/N434W, O4 VH with Ab6 light chain (antibody)
heavy: B1 heavy with S259D
light: not shown
notes: hIgG1
B5: hIgG1 M252Y/V308P/N434W, O4 VH with Ab6 light chain (antibody)
heavy: B1 heavy with S259T
light: not shown
notes: hIgG1
B6: hIgG1 M252Y/T256V/V308P/N434W, O4 VH with Ab6 light chain (antibody)
heavy: B1 heavy with S259V
light: not shown
notes: hIgG1
B7: hIgG1 M252Y/T256P/V308P/N434W, O4 VH with Ab6 light chain (antibody)
heavy: B1 heavy with S259P
light: not shown
notes: hIgG1
B8: hIgG1 M252Y/T256E/V308P/N434W, O4 VH with Ab6 light chain (antibody)
heavy: B1 heavy with S259E
light: not shown
notes: hIgG1
B9: hIgG1 M252Y/V308P/N434Y, O4 VH with Ab6 light chain (antibody)
heavy: B1 heavy with S259T, W437Y
light: not shown
notes: hIgG1
B10: hIgG1 M252Y/T256A/V308P/N434W, O4 VH with Ab6 light chain (antibody)
heavy: B1 heavy with S259A
light: not shown
notes: hIgG1
B11: hIgG1 M252Y/T256V/V308P/N434F, O4 VH with Ab6 light chain (antibody)
heavy: B1 heavy with S259V, W437F
light: not shown
notes: hIgG1
B12: hIgG1 M252Y/T256H/V308P/N434W, O4 VH with Ab6 light chain (antibody)
heavy: B1 heavy with S259H
light: not shown
notes: hIgG1
B13: hIgG1 M252Y/T256Y/V308P/N434W, O4 VH with Ab6 light chain (antibody)
heavy: B1 heavy with S259Y
light: not shown
notes: hIgG1
B14: hIgG1 M252Y/T256L/V308P/N434W, O4 VH with Ab6 light chain (antibody)
heavy: B1 heavy with S259L
light: not shown
notes: hIgG1
B15: hIgG1 M252Y/S254T/T256E/N434W, O4 VH with Ab6 light chain (antibody)
heavy: B1 heavy with S257T, S259E, P311V
light: not shown
notes: hIgG1
B16: hIgG1 M252Y/T256R/V308P/N434W, O4 VH with Ab6 light chain (antibody)
heavy: B1 heavy with S259R
light: not shown
notes: hIgG1

Biological target: T1, human FcRn protein (human, UniProt P55899 24-297, limits assumed)
T1 construct: source and construct not described; also called hFcRn; FCGRT
Assay: SPR, Ab on Protein L chip, hFcRn in flow, pH 7.4
Procedure: (§1) The interaction between human immunoglobulin proteins and FcRn is known to be affected by the pH of their environment solution. To test whether this pH-dependent interaction correlates with the quantity of antibody variants in the brain parenchyma after in vivo administration, the affinity of certain variants towards FcRn were screened at pH 6.0 and pH 7.4 on a Biacore T200 system (GE Healthcare). All experiments were conducted at 25′ C. Antibodies were expressed and purified using the Expi293 expression system as described in Example 1. Cells were transfected with a heavy chain comprising the variable region of the 04 antibody used in Example 2 [SEQ ID NO: 1] fused to a heavy chain region bearing the indicated substitution in Table 11 and a light chain from Ab6 [SEQ TD NO: 24]. Although the CH sequences listed in Table 11 include the terminal lysine (K447), this terminal lysine was truncated during the cloning process for each of these variants for the purposes of this experiment. Antibody proteins were captured at a flow rate of 10 μL/min on a Protein L chip to a surface density of approximately 100 RU. Experiments conducted at pH 7.4 were conducted in PBST (1.06 mMKH2PO4, 155.17 mM7NaCl, 2.97 mM 4Na2PO4-7H2O, and 0.005 Tween-20). […] The antibody-FcRn complex was allowed to dissociate for 20 s before the chip was regenerated with 10 mM glycine pH 1.7. On-rates (ka) and off-rates (kd) were estimated by the best fit to a one-to-one Langmuir binding model by simultaneous fitting of the association and dissociation sensograms. The dissociation constant (KD) for FcRn binding was then calculated as the ratio of the off rate to the on rate (kd/ka).

T1 sequence (P55899 24-297 limits assumed, chain 1 of 2): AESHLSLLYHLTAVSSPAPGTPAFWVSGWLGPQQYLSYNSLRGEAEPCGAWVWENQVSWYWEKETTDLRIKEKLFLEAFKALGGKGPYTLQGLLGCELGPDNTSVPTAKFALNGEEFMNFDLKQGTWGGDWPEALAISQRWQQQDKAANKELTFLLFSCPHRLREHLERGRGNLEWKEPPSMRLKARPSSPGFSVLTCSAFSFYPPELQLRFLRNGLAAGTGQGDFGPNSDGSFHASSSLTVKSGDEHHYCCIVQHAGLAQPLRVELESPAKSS
T1 sequence (chain, as listed by the source limits assumed, chain 2 of 2): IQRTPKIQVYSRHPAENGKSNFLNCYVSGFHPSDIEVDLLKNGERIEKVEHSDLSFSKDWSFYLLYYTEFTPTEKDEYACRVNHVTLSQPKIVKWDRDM

Question: What does the source list for B1?
Answer: Kd: 84.5 nM; koff: 0.0564 s⁻¹; kon: 668000 M⁻¹ s⁻¹

Question: With B2 as the binder, how does the Kd read?
Answer: 239 nM

Question: What about the koff of the same binder?
Answer: 0.0545 s⁻¹

Question: What about the kon of the same binder?
Answer: 228000 M⁻¹ s⁻¹

Question: For B3, which Kd is on record?
Answer: 37.2 nM

Question: And the koff?
Answer: 0.28 s⁻¹

Question: What about the kon of the same binder?
Answer: 7.62e+06 M⁻¹ s⁻¹

Question: What does the source list for B4?
Answer: Kd: 52.1 nM; koff: 0.0338 s⁻¹; kon: 650000 M⁻¹ s⁻¹

Question: For B5, which Kd is on record?
Answer: 730000 nM

Question: And the koff?
Answer: 3.11 s⁻¹

Question: And the kon?
Answer: 4260 M⁻¹ s⁻¹

Question: B6 was tested. Which Kd did it give?
Answer: 68.7 nM

Question: What about the koff of the same binder?
Answer: 0.0327 s⁻¹

Question: What about the kon of the same binder?
Answer: 476000 M⁻¹ s⁻¹

Question: For B7, which Kd is on record?
Answer: 49.8 nM

Question: And the koff?
Answer: 0.02 s⁻¹

Question: What about the kon of the same binder?
Answer: 442000 M⁻¹ s⁻¹

Question: With B8 as the binder, how does the Kd read?
Answer: 70.2 nM

Question: What about the koff of the same binder?
Answer: 0.0341 s⁻¹

Question: And the kon?
Answer: 486000 M⁻¹ s⁻¹

Question: B9 was tested. Which Kd did it give?
Answer: 10300 nM

Question: And the koff?
Answer: 0.748 s⁻¹

Question: And the kon?
Answer: 72600 M⁻¹ s⁻¹

Question: Which Kd does the source give for B10 here?
Answer: 90.1 nM

Question: What about the koff of the same binder?
Answer: 0.08 s⁻¹

Question: And the kon?
Answer: 893000 M⁻¹ s⁻¹

Question: Which results are given for B11?
Answer: Kd: 202 nM; koff: 0.2 s⁻¹; kon: 977000 M⁻¹ s⁻¹

Question: How did the Kd turn out when B12 was run?
Answer: 103 nM

Question: And the koff?
Answer: 0.19 s⁻¹

Question: What about the kon of the same binder?
Answer: 1.82e+06 M⁻¹ s⁻¹

Question: With B13 as the binder, how does the Kd read?
Answer: 202 nM

Question: What about the koff of the same binder?
Answer: 0.08 s⁻¹

Question: And the kon?
Answer: 395000 M⁻¹ s⁻¹

Question: B14 was tested. Which Kd did it give?
Answer: 137 nM

Question: What about the koff of the same binder?
Answer: 0.0868 s⁻¹

Question: What about the kon of the same binder?
Answer: 634000 M⁻¹ s⁻¹

Biological target: T1, human FcRn protein
Assay: SPR, Ab on Protein L chip, hFcRn in flow, pH 6.0
Procedure: as §1

Question: For B15, which Kd is on record?
Answer: 4.38 nM

Question: What about the koff of the same binder?
Answer: 0.00655 s⁻¹

Question: And the kon?
Answer: 1.49e+06 M⁻¹ s⁻¹

Question: B1 was tested. Which Kd did it give?
Answer: 1.23 nM

Question: What about the koff of the same binder?
Answer: 0.00186 s⁻¹

Question: What about the kon of the same binder?
Answer: 1.52e+06 M⁻¹ s⁻¹

Question: For B2, which Kd is on record?
Answer: 4.26 nM

Question: What about the koff of the same binder?
Answer: 0.00706 s⁻¹

Question: What about the kon of the same binder?
Answer: 1.66e+06 M⁻¹ s⁻¹

Question: With B3 as the binder, how does the Kd read?
Answer: 0.828 nM

Question: What about the koff of the same binder?
Answer: 0.00125 s⁻¹

Question: What about the kon of the same binder?
Answer: 1.51e+06 M⁻¹ s⁻¹

Question: How did the Kd turn out when B4 was run?
Answer: 1.19 nM

Question: And the koff?
Answer: 0.00211 s⁻¹

Question: What about the kon of the same binder?
Answer: 1.77e+06 M⁻¹ s⁻¹

Question: Which results are given for B5?
Answer: Kd: 0.767 nM; koff: 0.00124 s⁻¹; kon: 1.62e+06 M⁻¹ s⁻¹

Question: Which results are given for B16?
Answer: Kd: 0.433 nM; koff: 0.001 s⁻¹; kon: 2.31e+06 M⁻¹ s⁻¹

Question: How did the Kd turn out when B6 was run?
Answer: 1.87 nM

Question: What about the koff of the same binder?
Answer: 0.0024 s⁻¹

Question: And the kon?
Answer: 1.29e+06 M⁻¹ s⁻¹

Question: Which Kd does the source give for B7 here?
Answer: 0.0414 nM

Question: And the koff?
Answer: 3.83e-05 s⁻¹

Question: And the kon?
Answer: 927000 M⁻¹ s⁻¹

Question: With B8 as the binder, how does the Kd read?
Answer: 0.744 nM

Question: What about the koff of the same binder?
Answer: 0.00128 s⁻¹

Question: What about the kon of the same binder?
Answer: 1.71e+06 M⁻¹ s⁻¹

Question: For B9, which Kd is on record?
Answer: 1.51 nM

Question: And the koff?
Answer: 0.00242 s⁻¹

Question: And the kon?
Answer: 1.61e+06 M⁻¹ s⁻¹

Question: What does the source list for B10?
Answer: Kd: 0.426 nM; koff: 0.000815 s⁻¹; kon: 1.91e+06 M⁻¹ s⁻¹

Question: With B11 as the binder, how does the Kd read?
Answer: 1.25 nM

Question: And the koff?
Answer: 0.00139 s⁻¹

Question: And the kon?
Answer: 1.11e+06 M⁻¹ s⁻¹

Question: What does the source list for B12?
Answer: Kd: 2.2 nM; koff: 0.00228 s⁻¹; kon: 1.04e+06 M⁻¹ s⁻¹

Question: B13 was tested. Which Kd did it give?
Answer: 0.754 nM

Question: What about the koff of the same binder?
Answer: 0.00112 s⁻¹

Question: What about the kon of the same binder?
Answer: 1.49e+06 M⁻¹ s⁻¹

Question: With B14 as the binder, how does the Kd read?
Answer: 2.85 nM

Question: What about the koff of the same binder?
Answer: 0.00351 s⁻¹

Question: What about the kon of the same binder?
Answer: 1.23e+06 M⁻¹ s⁻¹
